39 molecules from patent US20170165337A1 (IMMATICS BIOTECHNOLOGIES, published 2017) can be followed below.

This test concerns the target T1, HLA-A*02:01 (human).
T1 construct: MHC class I monomer of the UV-ligand exchange assay; also called peptide-receptive MHC molecules; MHC class I
In words: UV peptide-exchange ELISA. The gist of the method: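 Peptide-MHC complexes formed by UV-mediated exchange of a UV-cleavable peptide for the test peptide; exchange yield quantified by β2m ELISA. Diluted 100-fold, captured on streptavidin-coated plates 1 h at 37 °C, detected with HRP anti-β2m and TMB at 450 nm against refolded HLA-A*02:01 monomer standards (15-500 ng/ml).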
Background: An ELISA detects its analyte on a solid surface through an enzyme-linked reagent.

Molecule ILGYMAHEHKV showed a peptide exchange yield of 20 to 50%. Then HQIEAVDGEEL, with 20 to 50%. The figure for HLMLHTAAL is not below 75%; for VLIEDELEEL it is 20 to 50%; for ILNNEVFAI it is 50 to 75%. The figure for GLQSGVDIGV is 50 to 75%; for GLDQQFAGLDL it is 10 to 20%. GLLEVISALQL returned a peptide exchange yield of 50 to 75%.

For the molecule GLLDAGKMYV, the peptide exchange yield was 50 to 75%. Molecule ILVVIEPLL had a peptide exchange yield not below 75%. In turn, VIADLGLIRV came in with a peptide exchange yield of 50 to 75%. The molecule GLDDVTVEV yielded a peptide exchange yield of 20 to 50%.

The molecule ILFNTQINI had a peptide exchange yield of 50 to 75%.

With GLLRASFLL, the peptide exchange yield lay within 20 to 50%. The figure for ALCDTLITV is 50 to 75%; for GLKHDIARV it is 50 to 75%. Then GLDDMKANL, with 20 to 50%; and ILFPLRFTL, with 50 to 75%; and GLLRIIPYL, with 50 to 75%. The figure for GLQAKIQEA is 50 to 75%; for HLYPGAVTI it is 50 to 75%. As to ILDFGTFQL, the peptide exchange yield lay within 50 to 75%. The figure for ILDEIGADVQA is 50 to 75%; for SLIKYFLFV it is 10 to 20%; for WLVGQEFEL it is 50 to 75%. In turn, FVPDTPVGV displayed a peptide exchange yield of 50 to 75%. In turn, GLHQREIFL came in with a peptide exchange yield of 50 to 75%. Then ILDLNTYNV, with 50 to 75%; and GQGEVLVYV, with 50 to 75%; and ALAASALPALV, with 50 to 75%.

Consider GLPSFLTEV, for which the peptide exchange yield was 50 to 75%. The figure for ILIFHSVAL is 50 to 75%. In turn, ILIDKTSFV displayed a peptide exchange yield of 50 to 75%. For the molecule SLAGGLDDMKA, the peptide exchange yield lay within 50 to 75%. Then GLSIFAQDLRL, with 20 to 50%. Then LLFATQITL, with 20 to 50%; and GVMDVNTAL, with 20 to 50%; and ILEPLNPLL, with 50 to 75%. Then ALLERTGYTL, with 50 to 75%.
